Laboratory results as given in publication PMC7112440.
Where two headings read alike, the source gives them in different places.

Key:
[1] = biological target: human norovirus HuNoV (GII.4), virus from a positive stool sample (human norovirus GII.4); experiment: BLI
[2] = biological target: viral hemorrhagic septicemia virus (VHSV) genotype IVa; experiment: SPR
[3] = biological target: human norovirus HuNoV (GII.4), virus from a positive stool sample (human norovirus GII.4); experiment: SPR
[4] = biological target: concanavalin A (Con A) isolated from Canavalia ensiformis (Jack bean) (Canavalia ensiformis); experiment: capture on a column of Con A-immobilised polyacrylate beads
[5] = biological target: concanavalin A (Con A) isolated from Canavalia ensiformis (Jack bean) (Canavalia ensiformis); experiment: as above; remark: listed apart in the source

concanavalin A (Con A) isolated from Canavalia ensiformis (Jack bean) (natural protein)
association, fold over the commercial HuNoV antibody [1]: 10 fold
Kd [2]: 710 nM
Kd [3]: 71.5 nM

human norovirus HuNoV (GII.4), virus from a positive stool sample (complex)
HuNoV recovery (%) from lettuce [4]: 89.5%
HuNoV recovery (%) from milk [4]: 60.8%
HuNoV recovery (%) from strawberry [4]: 70.8%
virus recovery (%) [4]: > 90%
virus recovery (%) [5]: 90.6%

human norovirus HuNoV GII.2, virus from a positive stool sample (complex)
virus recovery (%) [5]: 85.2%

human norovirus HuNoV GII.6, virus from a positive stool sample (complex)
virus recovery (%) [5]: 41.8%

human norovirus HuNoV GI.3, virus from a positive stool sample (complex)
virus recovery (%) [5]: 68.5%

human norovirus HuNoV GII.17, virus from a positive stool sample (complex)
virus recovery (%) [5]: 61.4%

human norovirus HuNoV GII.8, virus from a positive stool sample (complex)
virus recovery (%) [5]: 77.8%

human norovirus HuNoV GI.8, virus from a positive stool sample (complex)
virus recovery (%) [5]: 56.2%
